Measurements published in the supplement of paper PMC9170038.

System: MS2 coat protein
Assay: apparent KD of MS2 coat protein; designed switch direction (-1 OFF switch, 1 ON switch): 1; higher = weaker reporter binding
Summary of the method: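 The buffer was Tris-HCl pH 7.5 with KCl, MgCl2, BSA, DTT, tRNA and Tween-20. In it, SNAP-549-labelled MS2 coat protein was titrated in doubling steps from 0.7 or 1.5 nM to 3 µM over chip-bound RNA switches transcribed by stalled E. coli RNA polymerase on Illumina chips. Apparent KD is the per-design median over clusters of curve fits to normalised fluorescence.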

[1] = input ligand: microRNA oligo, concentration not stated
[2] = Eterna round: R95, input ligand: FMN 200 uM
[3] = Eterna round: R95, input ligand: microRNA oligo, concentration not stated
[4] = Eterna round: R95, input ligand: none

Sequence: GAGAGAGGGUGAGGAUAUGCAGUAAUAAUGAUAGCAGAAGGCACAGACAUGAGGAUCACCCAUGUGGGAAUAAUCCAGAGAGAG [Parity 2 - Jieux - Same State NG 1] (Eterna round: R96, puzzle: Same State NG 1)
- apparent KD of MS2 coat protein (input ligand: FMN 200 uM): 291 nM
- apparent KD of MS2 coat protein [1]: 177 nM
- apparent KD of MS2 coat protein (input ligand: none): 305 nM

Sequence: GAGAGAUGGCGAGGAUAUUCGGUGAUAAUGAUAGAAGAAGGCGCUGACAUGAGGAUCACCCAUGUGGGAAUAAUCCAGAGAGAG [Parity 18 - Jieux - Same State NG 1] (Eterna round: R96, puzzle: Same State NG 1)
- apparent KD of MS2 coat protein (input ligand: FMN 200 uM): 283 nM
- apparent KD of MS2 coat protein [1]: 73.8 nM
- apparent KD of MS2 coat protein (input ligand: none): 226 nM

Sequence: GAGCCAGUCCGAGGAUAUUCAUAUUAAACAUGAGGAUCACCCAUGUAGGCUCAGAAAGAGCCUUGGGAGAAGGCGGACUGGCUC [Xeonanisa<<1] (Eterna round: R96, puzzle: Same State NG 2)
- apparent KD of MS2 coat protein (input ligand: FMN 200 uM): 16.7 nM
- apparent KD of MS2 coat protein [1]: 182 nM
- apparent KD of MS2 coat protein (input ligand: none): 201 nM

Sequence: GAGGAACAGGCCAACAUGAGGAUCACCCAUGUCCUCGCACUUCAGGAUAUCUGGAGGAAGAAGAAAGAGAAGGGAAGGUGAAGC [AK SSNG3-V2-34.2] (Eterna round: R96, puzzle: Same State NG 3)
- apparent KD of MS2 coat protein (input ligand: FMN 200 uM): 202 nM
- apparent KD of MS2 coat protein [1]: 30.1 nM
- apparent KD of MS2 coat protein (input ligand: none): 19.3 nM

Sequence: GAGGAGGAUACAGGAUAUAUACAUGAGGAUCACACAUACAUGACAUGAGGAUCACCCAUGUUUGUAUAGAAGGGUAAGAGGAGG [Seems to be working] (Eterna round: R96, puzzle: Same State NG 2)
- apparent KD of MS2 coat protein (input ligand: FMN 200 uM): 51.2 nM
- apparent KD of MS2 coat protein [1]: 24.2 nM
- apparent KD of MS2 coat protein (input ligand: none): 66.1 nM

Sequence: GAGGAUGAUUUACAGGAUAUAUAGAAGAUGACAUGAGGAUCACCCAUGUAAGAGAAAGGAGGGAGAUAGAAGGGUAAGGGAUGUG [JR_SS2_Sub40] (puzzle: Same State 2)
- apparent KD of MS2 coat protein [2]: 37.2 nM
- apparent KD of MS2 coat protein [3]: 24.5 nM
- apparent KD of MS2 coat protein [4]: 42.3 nM

Sequence: GAGGCACAUGAGGAUCACCCAUGUGGGUAUAACAUAGGAUAUCACCAACAAAAUACCCGGUGAGAAGGAUGAUGCC [Ravevele] (puzzle: Same State 1)
- apparent KD of MS2 coat protein [3]: 158 nM

Sequence: GAGGGACAGACCAACAUGAGGAUCACCCAUGUCCUCGCAGGUCAGGAUAUCCCGCCAACAGGCGAGGAGAAGGGACGGUGAACC (Eterna round: R96, puzzle: Same State NG 3)
- apparent KD of MS2 coat protein (input ligand: FMN 200 uM): 610 nM
- apparent KD of MS2 coat protein [1]: 672 nM
- apparent KD of MS2 coat protein (input ligand: none): 713 nM

Sequence: GAGGGAUGAGCGUAGGAUAUAGGAGAAGUGACAUGAGGAUCACCCAUGUAGGAGGAGGGAUGAGACUAGAAGGACGAGGUAGGAG [JR_SS2_Sub061] (puzzle: Same State 2)
- apparent KD of MS2 coat protein [2]: 37.5 nM
- apparent KD of MS2 coat protein [3]: 54.7 nM
- apparent KD of MS2 coat protein [4]: 67.9 nM

Sequence: GAGGGCGAAAGCAACAUGAGGAUCACCCAUGUCCUCGGAGGGCAGGAUAUCCGGCGGUAGCCGAAGGAGAAGGGUCGGUAAGAA [AK SSNG3-V2-33.1] (Eterna round: R96, puzzle: Same State NG 3)
- apparent KD of MS2 coat protein (input ligand: FMN 200 uM): 159 nM
- apparent KD of MS2 coat protein [1]: 107 nM
- apparent KD of MS2 coat protein (input ligand: none): 584 nM

Sequence: GAGUGAUGGGUUAGUAACUGCUAGGAAGGACAUGAGGAUCACCCAUGUGAGUAACGAGCUUGUGCUCGUCUUAUAAG [JR_SHM208A_Sub021] (puzzle: Sensor for hsa-mir-208a)
- apparent KD of MS2 coat protein [2]: 167 nM
- apparent KD of MS2 coat protein [3]: 89.4 nM
- apparent KD of MS2 coat protein [4]: 325 nM

Sequence: GAGUGGAGGAAAGGAUAUACAAUGAUAAUCACAGUAGAAGGUUCUAACAUGAGGAUCACCCAUGUAGGACUAUACCAGAGAGGG [Parity 46 - Jieux - Same State NG 1] (Eterna round: R96, puzzle: Same State NG 1)
- apparent KD of MS2 coat protein [1]: 11.4 nM

Sequence: GAGUGGCAGUAAGGAUAUAUAGUGAUAAUCACAGUAGAAGGUACUGACAUGAGGAUCACCCAUGUAGGACUAAUCCAGAGAGAG [Parity 42 - Jieux - Same State NG 1] (Eterna round: R96, puzzle: Same State NG 1)
- apparent KD of MS2 coat protein (input ligand: FMN 200 uM): 73.6 nM
- apparent KD of MS2 coat protein [1]: 26.4 nM
- apparent KD of MS2 coat protein (input ligand: none): 37.5 nM

Sequence: GAGUGGCAGUUAGGAUAUAUAGUGAUAAUCACAAUAGAAGGAACUGACAUGAGGAUCACCCAUGUAGGACUAAUCCAGAGAGAG [Parity 40 - Jieux - Same State NG 1] (Eterna round: R96, puzzle: Same State NG 1)
- apparent KD of MS2 coat protein (input ligand: FMN 200 uM): 56.9 nM
- apparent KD of MS2 coat protein [1]: 21.7 nM
- apparent KD of MS2 coat protein (input ligand: none): 26.8 nM

Sequence: GAGUGGUAAAGAGGAUAUGCAUUGUUAUUAAAUGCAGAAGGUUUUAACAUGAGGAUCACCCAUGUAGGACUAUUCCUGUGUUUC [Parity 65 - Jieux - Same State NG 1] (Eterna round: R96, puzzle: Same State NG 1)
- apparent KD of MS2 coat protein [1]: 11.4 nM

Sequence: GAGUGGUAAAGAGGAUAUGCAUUGUUAUUCACUGCAGAAGGUUUUAACAUGAGGAUCACCCAUGUAGGACUAUUCCUGUGUUUC [Parity 64 - Jieux - Same State NG 1] (Eterna round: R96, puzzle: Same State NG 1)
- apparent KD of MS2 coat protein [1]: 10.3 nM

Sequence: GAGUGGUAGAGAGGAUAUGCAUUGUUAUUCACUGUAGAAGGUUUUAACAUGAGGAUCACCCAUGUAGGACUAUUCCUGUGUUUU [Parity 62 - Jieux - Same State NG 1] (Eterna round: R96, puzzle: Same State NG 1)
- apparent KD of MS2 coat protein (input ligand: FMN 200 uM): 16.3 nM
- apparent KD of MS2 coat protein [1]: 13.3 nM
- apparent KD of MS2 coat protein (input ligand: none): 18.4 nM

Sequence: GAGUGGUAGGGAGGAUAUGCAUUGUUAUUAAAUGCAGAAGGUUUUAACAUGAGGAUCACCCAUGUAGGACUAUUCCUGUGUUUC [Parity 67 - Jieux - Same State NG 1] (Eterna round: R96, puzzle: Same State NG 1)
- apparent KD of MS2 coat protein (input ligand: FMN 200 uM): 12.4 nM
- apparent KD of MS2 coat protein [1]: 12.7 nM
- apparent KD of MS2 coat protein (input ligand: none): 16.9 nM

Sequence: GAGUGGUUGGGAGGAUAUGCAUUGUUAUUAAAUGCAGAAGGUUUUAACAUGAGGAUCACCCAUGUAGGACUAUUCCUGUGUAUC [Parity 69 - Jieux - Same State NG 1] (Eterna round: R96, puzzle: Same State NG 1)
- apparent KD of MS2 coat protein (input ligand: FMN 200 uM): 13 nM
- apparent KD of MS2 coat protein [1]: 12.1 nM
- apparent KD of MS2 coat protein (input ligand: none): 15.8 nM

Sequence: GAUCGUUUGAUAGGAUAUCGCUAUACAUGAGGAUCACCCAUGUUUACCACGCUGGUUUUUCAUACCGAGAAGGAUUCUGAUGAU [salish99_SSNG02_r04_009] (Eterna round: R96, puzzle: Same State NG 2)
- apparent KD of MS2 coat protein (input ligand: FMN 200 uM): 29.9 nM
- apparent KD of MS2 coat protein [1]: 24.9 nM
- apparent KD of MS2 coat protein (input ligand: none): 36.9 nM

Sequence: GAUUAACAUGAGGAUCACCCAUGUCGUUUAAUGGGAGGAUAUACGUGGACCGUAGUCCGCGUAGAAGGCCUAAUUG [JL-ss1-3.22 janelle mod] (Eterna round: R96, puzzle: Same State 1)
- apparent KD of MS2 coat protein (input ligand: FMN 200 uM): 31.5 nM
- apparent KD of MS2 coat protein [1]: 48.3 nM
- apparent KD of MS2 coat protein (input ligand: none): 77.4 nM

Sequence: GAUUAACAUGAGGAUCACCCAUGUCGUUUAAUGGGAGGAUAUACGUGGACCGUAGUCCGCGUAGAAGGCCUAAUUG [JL-ss1-3.22 janelle mod] (puzzle: Same State 1)
- apparent KD of MS2 coat protein [3]: 76.1 nM

Sequence: GAUUCACAUGAGGAUCACCCAUGUCGUUUUAUGGGAGGAUAUACGUGGACCGUAGUCCGCGUAGAAGGCCUAAUUG [JL-ss1-3.24 janelle mod] (puzzle: Same State 1)
- apparent KD of MS2 coat protein [3]: 92.1 nM

Sequence: GCAAUAAGGUGAGGAUAUGCAGAGGAUCACCCUGUAGAAGGCAUCAGGUGAGGAUAUGCAGAGGAUCACCCUGUAGAAGGCAUC [pwkr ssNG DX.15] (Eterna round: R96, puzzle: Same State NG 1)
- apparent KD of MS2 coat protein (input ligand: FMN 200 uM): 100 nM
- apparent KD of MS2 coat protein [1]: 123 nM
- apparent KD of MS2 coat protein (input ligand: none): 175 nM

Sequence: GCACAUGAGGAUCACCCAUGUGCGCUUGGUUGUCCAAGCGCACAGGAUAUACCUCCCAAUGGGAGGUAGAAGGGUGAAAAGAAA [Orraveceat] (Eterna round: R96, puzzle: Same State NG 3)
- apparent KD of MS2 coat protein (input ligand: FMN 200 uM): 12.4 nM
- apparent KD of MS2 coat protein [1]: 10.9 nM
- apparent KD of MS2 coat protein (input ligand: none): 16 nM

Sequence: GCACCUCGAUGAGGAUAUACAAGCGGAGAUUACAUGAGGAUCACCCAUGUGUGUCGCUUUCGAUGGUAGAAGGCAUACGAGGCA [Eternabot solution 14] (Eterna round: R96, puzzle: Same State NG 2)
- apparent KD of MS2 coat protein (input ligand: FMN 200 uM): 16.6 nM
- apparent KD of MS2 coat protein [1]: 52.5 nM
- apparent KD of MS2 coat protein (input ligand: none): 59.2 nM

Sequence: GCAGGACGGUAAAACAUCUCACAUGAGGAUCACCCAUGUCGUGAGGAUAUGGAUCCUAAUUGGAUCCAGAAGGCACGGUCCUGC [Fiskers NG3ss - 29] (Eterna round: R96, puzzle: Same State NG 3)
- apparent KD of MS2 coat protein (input ligand: FMN 200 uM): 18.4 nM
- apparent KD of MS2 coat protein [1]: 14 nM
- apparent KD of MS2 coat protein (input ligand: none): 13.6 nM

Sequence: GCCAACUAAUGAGGAUAUGGCACCUUAUUGGUGCCAGAAGGCAUGUCAAUUGACAUGAGGAUCACCCAUGUAUUAUAGUUGGCA [Fiskers NG1ss - 33] (Eterna round: R96, puzzle: Same State NG 1)
- apparent KD of MS2 coat protein (input ligand: FMN 200 uM): 90.4 nM
- apparent KD of MS2 coat protein [1]: 178 nM
- apparent KD of MS2 coat protein (input ligand: none): 405 nM

Sequence: GCCACACAUGAGGAUCACCCAUGUAAUUACAUGGGAGGAUAUCAGUGCUCGAAAGAGCACUGAGAAGGCCCGUGGC [SS1 - Omei A v4] (puzzle: Same State 1)
- apparent KD of MS2 coat protein [2]: 120 nM
- apparent KD of MS2 coat protein [3]: 40.1 nM
- apparent KD of MS2 coat protein [4]: 309 nM

Sequence: GCCAGUGCGAAACUCACAUGAGGAUCACCCAUGUGCGUUGAGUAGGAUAUCCGGCUACUCGAGGCGGAGAAGGACUGGGUACUG [Eternabot solution 14] (Eterna round: R96, puzzle: Same State NG 3)
- apparent KD of MS2 coat protein (input ligand: FMN 200 uM): 17.4 nM
- apparent KD of MS2 coat protein [1]: 12.3 nM
- apparent KD of MS2 coat protein (input ligand: none): 17.3 nM

Sequence: GCCAUCCAAUGAGGAUAUGGCACCGUUUCGGUGCCAGAAGGCAUGUCAAUUGACAUGAGGAUCACCCAUGUAUUAUGGAUGGCA [JL Fiskers NG1ss - 33 mod 2] (Eterna round: R96, puzzle: Same State NG 1)
- apparent KD of MS2 coat protein (input ligand: FMN 200 uM): 101 nM
- apparent KD of MS2 coat protein [1]: 739 nM
- apparent KD of MS2 coat protein (input ligand: none): 1390 nM
